T1: recombinant OSMR protein (Sino Biologicals, 11226-H08H), extracellular domain of OSMR (UniProt Q99650 28-740)
T1 construct: extracellular domain; also called OSMR antigen
T1 sequence (looked up): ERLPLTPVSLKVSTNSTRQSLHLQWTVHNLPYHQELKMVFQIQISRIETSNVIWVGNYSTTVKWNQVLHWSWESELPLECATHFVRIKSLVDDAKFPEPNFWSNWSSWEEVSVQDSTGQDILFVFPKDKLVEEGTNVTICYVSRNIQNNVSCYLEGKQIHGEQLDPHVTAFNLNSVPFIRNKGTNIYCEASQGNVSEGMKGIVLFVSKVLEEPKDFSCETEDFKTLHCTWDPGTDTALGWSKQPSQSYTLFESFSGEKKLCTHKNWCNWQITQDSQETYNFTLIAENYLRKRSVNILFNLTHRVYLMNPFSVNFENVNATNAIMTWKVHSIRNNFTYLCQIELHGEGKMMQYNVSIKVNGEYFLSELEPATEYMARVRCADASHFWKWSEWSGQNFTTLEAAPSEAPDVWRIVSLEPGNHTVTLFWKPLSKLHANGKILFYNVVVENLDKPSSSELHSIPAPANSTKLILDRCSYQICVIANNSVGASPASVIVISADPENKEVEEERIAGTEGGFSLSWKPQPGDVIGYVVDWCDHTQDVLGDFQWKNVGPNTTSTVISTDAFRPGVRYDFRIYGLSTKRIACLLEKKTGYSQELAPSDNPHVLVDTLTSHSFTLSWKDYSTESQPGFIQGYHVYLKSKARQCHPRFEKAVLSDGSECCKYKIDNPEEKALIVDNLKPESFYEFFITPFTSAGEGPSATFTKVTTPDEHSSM

T2: cell surface human OSMR protein (as used in the ELISA for EC50) (human, UniProt Q99650 28-739, limits assumed)
T2 sequence (looked up): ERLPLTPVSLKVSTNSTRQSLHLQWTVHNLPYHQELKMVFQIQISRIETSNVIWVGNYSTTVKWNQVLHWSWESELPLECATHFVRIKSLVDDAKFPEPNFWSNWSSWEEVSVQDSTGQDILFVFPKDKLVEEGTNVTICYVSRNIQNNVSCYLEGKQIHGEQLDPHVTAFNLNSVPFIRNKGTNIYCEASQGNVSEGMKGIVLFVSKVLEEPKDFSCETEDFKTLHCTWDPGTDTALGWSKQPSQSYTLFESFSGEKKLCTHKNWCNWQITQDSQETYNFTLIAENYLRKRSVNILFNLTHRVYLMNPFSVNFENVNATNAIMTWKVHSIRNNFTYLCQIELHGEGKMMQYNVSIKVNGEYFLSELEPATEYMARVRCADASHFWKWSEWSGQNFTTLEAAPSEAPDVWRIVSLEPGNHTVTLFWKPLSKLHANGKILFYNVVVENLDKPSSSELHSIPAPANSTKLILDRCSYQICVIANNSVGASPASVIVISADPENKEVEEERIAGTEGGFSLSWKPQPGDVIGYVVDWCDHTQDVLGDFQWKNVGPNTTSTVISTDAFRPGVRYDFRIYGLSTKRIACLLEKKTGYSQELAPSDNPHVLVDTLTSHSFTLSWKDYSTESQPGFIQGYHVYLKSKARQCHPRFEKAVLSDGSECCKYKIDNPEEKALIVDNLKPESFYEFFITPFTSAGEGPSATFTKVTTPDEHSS


How the values were obtained:
[1] = molecular target: the molecule itself; assay: dimerization assay (cross-linking, immunoprecipitation) after OSM stimulation
Procedure: Dimerization assay: Dimerization assay was performed as mentioned previously (Bublil et al., 2010; Turk and Chapkin, 2015) with some modifications. […] The […] were incubated with non-permeable cross-linking reagent, 3 mM bis (sulphosuccinimidyl) suberate [BS3 (Pierce)], cross-linking reagent on ice for 30 min and subsequently quenched with 250 mM Glycine. The cells were washed with ice cold PBS and cells were lysed using RIPA buffer as mentioned earlier.

[2] = molecular target: T1, recombinant OSMR protein (Sino …); assay: screening of full-length IgG1 clones on recombinant OSMR extracellular domain
[3] = molecular target: T2, cell surface human OSMR protein (as …); assay: ELISA

| binding result [2] | binding result [3] | Binder | binding result [1] |
| --- | --- | --- | --- |
| – | – | OSMR on human ovarian cancer cells (HEYA8, OVCAR4, A2780) (receptor, UniProt Q99650 28-979, looked up, whole, on cells; also called Oncostatin M receptor; OMSR receptors) ERLPLTPVSLKVSTNSTRQSLHLQWTVHNLPYHQELKMVFQIQISRIETSNVIWVGNYSTTVKWNQVLHWSWESELPLECATHFVRIKSLVDDAKFPEPNFWSNWSSWEEVSVQDSTGQDILFVFPKDKLVEEGTNVTICYVSRNIQNNVSCYLEGKQIHGEQLDPHVTAFNLNSVPFIRNKGTNIYCEASQGNVSEGMKGIVLFVSKVLEEPKDFSCETEDFKTLHCTWDPGTDTALGWSKQPSQSYTLFESFSGEKKLCTHKNWCNWQITQDSQETYNFTLIAENYLRKRSVNILFNLTHRVYLMNPFSVNFENVNATNAIMTWKVHSIRNNFTYLCQIELHGEGKMMQYNVSIKVNGEYFLSELEPATEYMARVRCADASHFWKWSEWSGQNFTTLEAAPSEAPDVWRIVSLEPGNHTVTLFWKPLSKLHANGKILFYNVVVENLDKPSSSELHSIPAPANSTKLILDRCSYQICVIANNSVGASPASVIVISADPENKEVEEERIAGTEGGFSLSWKPQPGDVIGYVVDWCDHTQDVLGDFQWKNVGPNTTSTVISTDAFRPGVRYDFRIYGLSTKRIACLLEKKTGYSQELAPSDNPHVLVDTLTSHSFTLSWKDYSTESQPGFIQGYHVYLKSKARQCHPRFEKAVLSDGSECCKYKIDNPEEKALIVDNLKPESFYEFFITPFTSAGEGPSATFTKVTTPDEHSSMLIHILLPMVFCVLLIMVMCYLKSQWIKETCYPDIPDPYKSSILSLIKFKENPHLIIMNVSDCIPDAIEVVSKPEGTKIQFLGTRKSLTETELTKPNYLYLLPTEKNHSGPGPCICFENLTYNQAASDSGSCGHVPVSPKAPSMLGLMTSPENVLKALEKNYMNSLGEIPAGETSLNYVSQLASPMFGDKDSLPTNPVEAPHCSEYKMQMAVSLRLALPPPTENSSLSSITLLDPGEHYC | binds |
| binds | no binding | B18 monoclonal antibody (antibody, V domains shown, also called B18 mAb; B18 antibody clones) VH: not shown VL: DVVMTQSPLSLPVTPGEPASISCRSSQSLLHSNGYNYLDWYMQKPGQSPQVLIYLGSNRASGVPDRFSGSGSGTDFTLKISRVEAEDVGVYYCMQALQTPHTFGQGTTVDIK | – |

— patent publication US20250197513A1 (University of Texas, published 2025)
